Patent publication US20230391867A1 (SHENZHEN ENDURING BIOTECH, published 2023)

How the values were obtained:
[1] = molecular target: T1, Human CD47 Protein, Fc Tag (HPLC verified; Acro, cat:CD7-H5256-100ug) (human, UniProt Q08722 19-139); assay: ELISA, plate coated with human CD47 Fc Tag protein, anti-SCACD3 detection
T1 construct: Bought Fc-tagged CD47 coated on the ELISA plate; not shown: Fc tag

[2] = molecular target: T2, CD47 on human cells (red blood cells from healthy human donors; BxPC3; ZR-75-1) (human, UniProt Q08722 19-323); assay: cell-based or functional assay
T2 sequence (Q08722 19-323): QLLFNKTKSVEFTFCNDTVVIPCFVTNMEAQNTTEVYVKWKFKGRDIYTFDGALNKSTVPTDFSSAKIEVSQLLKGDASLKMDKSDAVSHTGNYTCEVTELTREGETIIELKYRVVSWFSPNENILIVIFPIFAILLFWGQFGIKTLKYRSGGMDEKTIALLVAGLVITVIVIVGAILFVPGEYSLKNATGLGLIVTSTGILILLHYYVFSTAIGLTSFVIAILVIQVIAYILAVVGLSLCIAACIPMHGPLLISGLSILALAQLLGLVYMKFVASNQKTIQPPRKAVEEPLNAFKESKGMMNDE

[3] = molecular target: T2, CD47 on human cells (red blood cells …); assay: flow cytometry, JY102-Alexa Fluor 488 at 10 ug/ml, % stained BxPC3 cells against % stained RBCs
Method: Again, RBC cells from healthy human donors or cultured BxPC3 cells were collected and resuspended to a concentration of approximately 5×10⁶ cells/ml in ice cold PBS, 3% BSA. 100 μl of cell suspension was used for each binding reaction and incubated with indicated doses of JY102-Alexa Fluor 488 for at least 30 min at room temperature (or 4° C. for the assay in panel C) in the dark. Then cells were washed 3 times by centrifugation at 400 g for 5 min and resuspended in ice cold PBS, 3% BSA. Each sample was subjected to flow cytometry analysis.

T1 sequence (Q08722 19-139 limits assumed): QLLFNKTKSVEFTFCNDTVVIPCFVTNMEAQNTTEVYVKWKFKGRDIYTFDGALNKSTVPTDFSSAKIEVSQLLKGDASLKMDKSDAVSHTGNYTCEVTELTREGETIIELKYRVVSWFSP

B1: JY102 (30kmPEG-(SCACD3)SCACD47) (bispecific antibody)
scFv 1: not shown
scFv 2: DIVMTQSPLSLPVTPGEPASISCRSSQSIVYSNGNTYLGWYLQKPGQSPQLLIYKVSNRFSGVPDRFSGSGSGTDFTLKISRVEAEDVGVYYCFQGSHVPYTFGQGTKLEIKGGCSGGSGGSGGSGGQVQLVQSGAEVKKPGASVKVSCKASGYTFTNYNMHWVRQAPGQRLEWMGTIYPGNDDTSYNQKFKDRVTITADTSASTAYMELSSLRSEDTAVYYCARGGYRAMDYWGQGTLVTVSS
modifications: free thiol (Cys) in the VL-VH linker is conjugated to Azide-PEG10-Maleimide; the azide is clicked to the DBCO of 30kmPEG-Lys(SCACD3)-DBCO; free thiol (Cys) genetically inserted in the VH-VL linker is conjugated to the maleimide of 30kmPEG-Lys(maleimide)-DBCO
notes: also called Compound 12; compound 12
EC50 [1]: 0.187 µg/mL
EC50 of T cell mediated cytotoxicity (MTS assay, expanded T cells, E:T 5:1, 24 h) to ZR75-1 [2]: 0.111 µg/mL
fold difference in binding (BxPC3 cells against RBCs) [3]: 40 fold
